Where no end group is shown, it is not given here.

Experiment [1] addresses C. elegans PEX-5 TPR domain (267 aa), Gal4p DNA-binding domain fusion (pSL8) (C. elegans). Description: two-hybrid; yeast strain PCY3; Pex5 TPR domain in pGBT9 (Gal4p DNA-binding domain) with Gal4p activation domain-peptide fusions in pGAD GH; b-galactosidase activity measured with O-nitrophenyl-b-D-galactoside on cells grown at 30 C in liquid selective medium; mean of three independent experiments per strain. The conditions noted are these: scale: nmol O-nitrophenyl-b-D-galactoside hydrolysed/min/mg protein.

Experiment [2] concerns the target T1, S. cerevisiae Pex5p TPR domain (305 aa), Gal4p DNA-binding domain fusion (pAH987) (S. cerevisiae).
T1 sequence (P35056 whole entry, looked up): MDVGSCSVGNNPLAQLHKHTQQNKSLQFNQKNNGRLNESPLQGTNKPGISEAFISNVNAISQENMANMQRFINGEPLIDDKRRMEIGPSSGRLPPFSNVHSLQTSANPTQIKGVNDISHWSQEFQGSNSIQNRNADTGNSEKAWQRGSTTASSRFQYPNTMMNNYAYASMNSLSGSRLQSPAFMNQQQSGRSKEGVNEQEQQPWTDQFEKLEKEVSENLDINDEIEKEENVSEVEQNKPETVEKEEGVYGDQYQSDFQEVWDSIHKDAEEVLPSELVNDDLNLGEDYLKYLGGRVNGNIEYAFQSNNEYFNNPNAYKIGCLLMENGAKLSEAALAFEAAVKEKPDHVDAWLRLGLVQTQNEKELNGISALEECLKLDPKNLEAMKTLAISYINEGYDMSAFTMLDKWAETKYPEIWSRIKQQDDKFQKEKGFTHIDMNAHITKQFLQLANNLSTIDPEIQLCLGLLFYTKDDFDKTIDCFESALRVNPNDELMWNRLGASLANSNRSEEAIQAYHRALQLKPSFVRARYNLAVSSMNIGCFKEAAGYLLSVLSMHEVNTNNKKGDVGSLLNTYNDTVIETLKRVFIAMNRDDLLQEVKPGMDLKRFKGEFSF
The description is as above. The conditions noted are these: scale: nmol O-nitrophenyl-b-D-galactoside hydrolysed/min/mg protein.

B1: Gal4p-… (peptide)
chain: Gal4p-GKNRGSESHGSARQKL
For the molecule B1, in experiment [1], the b-Galactosidase activity came to 57.9.

B2: Gal4p-… (peptide)
chain: Gal4p-SGGVVARAAKM
Regarding B2, the b-Galactosidase activity in experiment [1] was found to be 293.

B3: Gal4p-… (peptide)
chain: Gal4p-EGLIVMLERGKL
With B3, the b-Galactosidase activity in experiment [1] turned out to be 143.

B4: Gal4p-… (peptide)
chain: Gal4p-WYGPGPGCCRRRDLKL
modifications: cysteine pairing not given here
B4: the b-Galactosidase activity in experiment [1] came to 4.4.

B5: Gal4p-… (peptide)
chain: Gal4p-QRKANGRDRGGWWAKL
B5 displayed a b-Galactosidase activity in experiment [1] of 631.

B6: Gal4p-… (peptide)
chain: Gal4p-KRVWRRQWSTGRKLKL
B6: in experiment [1], the b-Galactosidase activity was 3.8.

B7: Gal4p-… (peptide)
chain: Gal4p-FEWGSQGWTRGRMHML
B7 registered a b-Galactosidase activity in experiment [2] of 39.

B8: Gal4p-CERSKL (peptide)
chain: Gal4p-CERSKL
Molecule B8 came in with a b-Galactosidase activity in experiment [2] of 163.

B9: Gal4p-… (peptide)
chain: Gal4p-RQRELSANALGGLAKL
In experiment [1], B9 showed a b-Galactosidase activity of 447.

B10: Gal4p-… (peptide)
chain: Gal4p-TWNRETKGLNAVYGKL
Molecule B10 displayed a b-Galactosidase activity in experiment [1] of 90.3.

B11: Gal4p-… (peptide)
chain: Gal4p-NGMTRSGRQGGGFAKL
With B11, in experiment [1], the b-Galactosidase activity turned out to be 352.

Values taken from publication PMC2448379.
